Stoichiometry N (His-Mis18α per His-GFP-Mis18β (4:2)) and stoichiometry N (His-GFP-Mis18α per His-Mis18β (4:2)) data for two substances are collected here from publication PMC5452045.

One test addresses His‐GFP‐Mis18β (human) (UniProt O43482). The test is described as follows: SEC-MALS; 100 μl of about 1 mg/ml on Superdex 200 10/300 GL; 50 mM HEPES pH 8.0, 150 mM NaCl, 1 mM TCEP; 22°C; subunit numbers from measured against calculated MW.
A further test has as its target His‐Mis18β (human) (UniProt O43482). Described as above.

His‐GFP‐Mis18β (human), sequence (O43482 whole entry): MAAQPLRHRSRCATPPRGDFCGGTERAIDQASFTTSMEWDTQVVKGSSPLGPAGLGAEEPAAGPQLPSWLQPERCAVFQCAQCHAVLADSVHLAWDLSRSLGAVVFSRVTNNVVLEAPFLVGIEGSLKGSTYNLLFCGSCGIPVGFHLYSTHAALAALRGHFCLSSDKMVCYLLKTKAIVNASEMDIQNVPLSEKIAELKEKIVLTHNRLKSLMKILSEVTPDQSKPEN
His‐Mis18β (human), sequence (O43482 whole entry): as above
His‐Mis18α, sequence (Q9NYP9 whole entry): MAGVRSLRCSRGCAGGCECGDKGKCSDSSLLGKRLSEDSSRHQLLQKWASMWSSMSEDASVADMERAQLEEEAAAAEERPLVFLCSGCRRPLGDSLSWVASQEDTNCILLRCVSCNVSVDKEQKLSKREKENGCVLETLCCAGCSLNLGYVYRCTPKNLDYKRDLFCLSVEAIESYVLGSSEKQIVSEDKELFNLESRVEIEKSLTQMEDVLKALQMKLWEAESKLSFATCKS
His‐GFP‐Mis18α, sequence (Q9NYP9 whole entry): as above

In the case of “His‐Mis18α (from UniProt Q9NYP9 1-233) (natural protein)”, in the test with His‐GFP‐Mis18β (human), the stoichiometry N (His-Mis18α per His-GFP-Mis18β (4:2)) was 2.
In the case of “His‐GFP‐Mis18α (from UniProt Q9NYP9 1-233) (natural protein)”, the stoichiometry N (His-GFP-Mis18α per His-Mis18β (4:2)) in the test with His‐Mis18β (human) was 2.
